Test results from US20200270325A1 (Merck Sharp & Dohme, published 2020).
Numbered stars: 1 amine (or outer) side, 2 acyl side, 3 side chain; on linkers, the order of the positions; unused ones are H or OH. Square brackets hold non-standard residues; d marks the D form. Side chains are listed from the residue outwards. Ends that are not written are not given here. * marks the point of attachment. Phe(4-CH2NH2) = NCc1ccc(C[C@H](N)C(=O)O)cc1; C18 diacid = O=C(O)CCCCCCCCCCCCCCCCC(=O)*; αMeW = C[C@](N)(Cc1c[nH]c2ccccc12)C(=O)O; C16 diacid = O=C(O)CCCCCCCCCCCCCCC(=O)*; γGlu = O=C(O)[C@H](CCC(=O)[*:2])N[*:1]; Met(O2) = CS(=O)(=O)CC[C@H](N)C(=O)O; αMeD = C[C@](N)(CC(=O)O)C(=O)O; AEEA = NCCOCCOCC(=O)O; Aib = CC(C)(N)C(=O)O

Experiments:
[1] = biological target: human Glucagon receptor (GCGR) (human, UniProt P47871 26-477); test: cell-based or functional assay
[2] = biological target: human GLP-1 receptor (GLP1R) (human, UniProt P43220 24-463); test: cell-based or functional assay

human Glucagon receptor (GCGR), sequence (P47871 26-477): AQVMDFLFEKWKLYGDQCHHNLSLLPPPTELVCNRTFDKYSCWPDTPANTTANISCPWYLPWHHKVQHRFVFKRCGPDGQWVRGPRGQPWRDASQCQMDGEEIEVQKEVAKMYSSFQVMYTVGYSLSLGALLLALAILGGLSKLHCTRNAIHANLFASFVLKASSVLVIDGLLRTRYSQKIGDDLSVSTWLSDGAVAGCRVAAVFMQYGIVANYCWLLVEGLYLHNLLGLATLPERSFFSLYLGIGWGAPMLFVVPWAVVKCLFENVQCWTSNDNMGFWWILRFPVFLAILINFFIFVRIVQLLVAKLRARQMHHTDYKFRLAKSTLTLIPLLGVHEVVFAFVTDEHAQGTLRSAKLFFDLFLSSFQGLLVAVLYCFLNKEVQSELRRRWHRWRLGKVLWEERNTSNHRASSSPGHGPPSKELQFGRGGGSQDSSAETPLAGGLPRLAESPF

Row | Binder | GCGR EC50 human [1] [nM] | GLP1R EC50 human [2] [nM]
1 | H[Aib]QGTFTSDYSKYLDARAAK([AEEA-γGlu-C18 diacid])DFVQWL[Met(O2)]DT-NH2 (N-terminus assumed; SMILES CC(C)C[C@H](NC(=O)[C@H](Cc1ccc(O)cc1)NC(=O)[C@H](CCCCN)NC(=O)[C@H](CO)NC(=O)[C@H](Cc1ccc(O)cc1)NC(=O)[C@H](CC(=O)O)NC(=O)[C@H](CO)NC(=O)[C@@H](NC(=O)[C@H](Cc1ccccc1)NC(=O)[C@@H](NC(=O)CNC(=O)[C@H](CCC(N)=O)NC(=O)C(C)(C)NC(=O)[C@@H](N)Cc1c[nH]cn1)[C@@H](C)O)[C@@H](C)O)C(=O)N[C@@H](CC(=O)O)C(=O)N[C@@H](C)C(=O)N[C@@H](CCCNC(=N)N)C(=O)N[C@@H](C)C(=O)N[C@@H](C)C(=O)N[C@@H](CCCCNC(=O)COCCOCCNC(=O)CC[C@H](NC(=O)CCCCCCCCCCCCCCCCC(=O)O)C(=O)O)C(=O)N[C@@H](CC(=O)O)C(=O)N[C@@H](Cc1ccccc1)C(=O)N[C@H](C(=O)N[C@@H](CCC(N)=O)C(=O)N[C@@H](Cc1c[nH]c2ccccc12)C(=O)N[C@@H](CC(C)C)C(=O)N[C@@H](CCS(C)(=O)=O)C(=O)N[C@@H](CC(=O)O)C(=O)N[C@H](C(N)=O)[C@@H](C)O)C(C)C) [TP626] | 0.39 | 0.77
2 | H[Aib]QGTFTSD[Phe(4-CH2NH2)]([AEEA-γGlu-C18 diacid])SKYLDARAAQDFVQWL[Met(O2)]DT-NH2 (N-terminus assumed; SMILES CC(C)C[C@H](NC(=O)[C@H](Cc1ccc(O)cc1)NC(=O)[C@H](CCCCN)NC(=O)[C@H](CO)NC(=O)[C@H](Cc1ccc(CNC(=O)COCCOCCNC(=O)CC[C@H](NC(=O)CCCCCCCCCCCCCCCCC(=O)O)C(=O)O)cc1)NC(=O)[C@H](CC(=O)O)NC(=O)[C@H](CO)NC(=O)[C@@H](NC(=O)[C@H](Cc1ccccc1)NC(=O)[C@@H](NC(=O)CNC(=O)[C@H](CCC(N)=O)NC(=O)C(C)(C)NC(=O)[C@@H](N)Cc1c[nH]cn1)[C@@H](C)O)[C@@H](C)O)C(=O)N[C@@H](CC(=O)O)C(=O)N[C@@H](C)C(=O)N[C@@H](CCCNC(=N)N)C(=O)N[C@@H](C)C(=O)N[C@@H](C)C(=O)N[C@@H](CCC(N)=O)C(=O)N[C@@H](CC(=O)O)C(=O)N[C@@H](Cc1ccccc1)C(=O)N[C@H](C(=O)N[C@@H](CCC(N)=O)C(=O)N[C@@H](Cc1c[nH]c2ccccc12)C(=O)N[C@@H](CC(C)C)C(=O)N[C@@H](CCS(C)(=O)=O)C(=O)N[C@@H](CC(=O)O)C(=O)N[C@H](C(N)=O)[C@@H](C)O)C(C)C) [TP623] | 0.09 | 0.17
3 | H[Aib]QGTFTSDYSKYLDARAAK([AEEA-γGlu-C16 diacid])DFVQWL[Met(O2)][αMeD]T-NH2 (N-terminus assumed; SMILES CC(C)C[C@H](NC(=O)[C@H](Cc1ccc(O)cc1)NC(=O)[C@H](CCCCN)NC(=O)[C@H](CO)NC(=O)[C@H](Cc1ccc(O)cc1)NC(=O)[C@H](CC(=O)O)NC(=O)[C@H](CO)NC(=O)[C@@H](NC(=O)[C@H](Cc1ccccc1)NC(=O)[C@@H](NC(=O)CNC(=O)[C@H](CCC(N)=O)NC(=O)C(C)(C)NC(=O)[C@@H](N)Cc1c[nH]cn1)[C@@H](C)O)[C@@H](C)O)C(=O)N[C@@H](CC(=O)O)C(=O)N[C@@H](C)C(=O)N[C@@H](CCCNC(=N)N)C(=O)N[C@@H](C)C(=O)N[C@@H](C)C(=O)N[C@@H](CCCCNC(=O)COCCOCCNC(=O)CC[C@H](NC(=O)CCCCCCCCCCCCCCC(=O)O)C(=O)O)C(=O)N[C@@H](CC(=O)O)C(=O)N[C@@H](Cc1ccccc1)C(=O)N[C@H](C(=O)N[C@@H](CCC(N)=O)C(=O)N[C@@H](Cc1c[nH]c2ccccc12)C(=O)N[C@@H](CC(C)C)C(=O)N[C@@H](CCS(C)(=O)=O)C(=O)N[C@@](C)(CC(=O)O)C(=O)N[C@H](C(N)=O)[C@@H](C)O)C(C)C) [TP627] | 0.14 | 0.25
4 | H[Aib]QGTFTSD[Phe(4-CH2NH2)]([AEEA-AEEA-γGlu-C18 diacid])SKYLDARAAQDFVQ[αMeW]L[Met(O2)]DT-NH2 (N-terminus assumed; SMILES CC(C)C[C@H](NC(=O)[C@H](Cc1ccc(O)cc1)NC(=O)[C@H](CCCCN)NC(=O)[C@H](CO)NC(=O)[C@H](Cc1ccc(CNC(=O)COCCOCCNC(=O)COCCOCCNC(=O)CC[C@H](NC(=O)CCCCCCCCCCCCCCCCC(=O)O)C(=O)O)cc1)NC(=O)[C@H](CC(=O)O)NC(=O)[C@H](CO)NC(=O)[C@@H](NC(=O)[C@H](Cc1ccccc1)NC(=O)[C@@H](NC(=O)CNC(=O)[C@H](CCC(N)=O)NC(=O)C(C)(C)NC(=O)[C@@H](N)Cc1c[nH]cn1)[C@@H](C)O)[C@@H](C)O)C(=O)N[C@@H](CC(=O)O)C(=O)N[C@@H](C)C(=O)N[C@@H](CCCNC(=N)N)C(=O)N[C@@H](C)C(=O)N[C@@H](C)C(=O)N[C@@H](CCC(N)=O)C(=O)N[C@@H](CC(=O)O)C(=O)N[C@@H](Cc1ccccc1)C(=O)N[C@H](C(=O)N[C@@H](CCC(N)=O)C(=O)N[C@@](C)(Cc1c[nH]c2ccccc12)C(=O)N[C@@H](CC(C)C)C(=O)N[C@@H](CCS(C)(=O)=O)C(=O)N[C@@H](CC(=O)O)C(=O)N[C@H](C(N)=O)[C@@H](C)O)C(C)C) [TP625] | 1.3 | 0.39
5 | H[Aib]QGTFTSDYSKYLDARAAK([AEEA-γGlu-C20‑OH])DFVQWL[Met(O2)][αMeD]T-NH2 [TP629] | 3.17 | 2.23
6 | H[Aib]QGTFTSD[Phe(4-CH2NH2)]([AEEA-AEEA-γGlu-C18 diacid])SKYLDARAAQDFVQWL[Met(O2)][αMeD]T-NH2 (N-terminus assumed; SMILES CC(C)C[C@H](NC(=O)[C@H](Cc1ccc(O)cc1)NC(=O)[C@H](CCCCN)NC(=O)[C@H](CO)NC(=O)[C@H](Cc1ccc(CNC(=O)COCCOCCNC(=O)COCCOCCNC(=O)CC[C@H](NC(=O)CCCCCCCCCCCCCCCCC(=O)O)C(=O)O)cc1)NC(=O)[C@H](CC(=O)O)NC(=O)[C@H](CO)NC(=O)[C@@H](NC(=O)[C@H](Cc1ccccc1)NC(=O)[C@@H](NC(=O)CNC(=O)[C@H](CCC(N)=O)NC(=O)C(C)(C)NC(=O)[C@@H](N)Cc1c[nH]cn1)[C@@H](C)O)[C@@H](C)O)C(=O)N[C@@H](CC(=O)O)C(=O)N[C@@H](C)C(=O)N[C@@H](CCCNC(=N)N)C(=O)N[C@@H](C)C(=O)N[C@@H](C)C(=O)N[C@@H](CCC(N)=O)C(=O)N[C@@H](CC(=O)O)C(=O)N[C@@H](Cc1ccccc1)C(=O)N[C@H](C(=O)N[C@@H](CCC(N)=O)C(=O)N[C@@H](Cc1c[nH]c2ccccc12)C(=O)N[C@@H](CC(C)C)C(=O)N[C@@H](CCS(C)(=O)=O)C(=O)N[C@@](C)(CC(=O)O)C(=O)N[C@H](C(N)=O)[C@@H](C)O)C(C)C) [TP624] | 1 | 0.89
